# Numbering of substitutions follows the chain as printed. Names and notes keep the numbering of the source.
# T1: hFc tagged human LAG3 ECD recombinant protein (human, UniProt P18627 23-450)
# T1 construct: range 23-450; also called biotin labelled hFc tagged human LAG3 ECD; not shown: human IgG Fc tag
# T1 sequence (looked up): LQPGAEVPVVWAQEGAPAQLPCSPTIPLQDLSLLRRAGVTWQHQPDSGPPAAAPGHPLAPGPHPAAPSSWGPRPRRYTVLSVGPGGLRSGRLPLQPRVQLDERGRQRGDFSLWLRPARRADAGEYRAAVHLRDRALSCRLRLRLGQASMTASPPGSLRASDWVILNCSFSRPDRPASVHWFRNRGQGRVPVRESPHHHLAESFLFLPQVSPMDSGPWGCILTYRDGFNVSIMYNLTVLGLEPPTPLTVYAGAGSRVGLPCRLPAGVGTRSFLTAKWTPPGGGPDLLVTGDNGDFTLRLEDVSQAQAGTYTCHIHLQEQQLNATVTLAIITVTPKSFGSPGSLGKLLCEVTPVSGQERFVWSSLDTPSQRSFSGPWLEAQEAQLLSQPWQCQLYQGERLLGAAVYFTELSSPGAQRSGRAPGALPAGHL
# T2: human LAG3, full length, stably expressed on cells (human, UniProt P18627 23-525)
# T2 construct: whole, on cells; also called CHOK1-human LAG3
# T2 sequence (looked up): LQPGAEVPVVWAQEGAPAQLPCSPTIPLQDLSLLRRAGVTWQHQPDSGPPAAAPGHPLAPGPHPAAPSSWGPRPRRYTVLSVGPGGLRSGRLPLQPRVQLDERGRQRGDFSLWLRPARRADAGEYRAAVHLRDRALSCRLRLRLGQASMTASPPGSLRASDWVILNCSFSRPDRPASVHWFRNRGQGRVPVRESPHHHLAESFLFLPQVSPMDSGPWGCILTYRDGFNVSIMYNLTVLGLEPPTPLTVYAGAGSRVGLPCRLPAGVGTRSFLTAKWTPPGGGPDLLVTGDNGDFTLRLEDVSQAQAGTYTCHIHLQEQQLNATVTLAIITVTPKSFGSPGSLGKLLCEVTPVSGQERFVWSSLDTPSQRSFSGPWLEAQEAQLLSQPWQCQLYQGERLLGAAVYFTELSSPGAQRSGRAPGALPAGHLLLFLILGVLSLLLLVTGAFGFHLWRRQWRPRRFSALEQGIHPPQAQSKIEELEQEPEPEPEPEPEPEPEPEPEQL
# T3: human LAG3 ECD recombinant protein (plate coated, tag not stated) (human, UniProt P18627 23-450)
# T3 construct: extracellular domain
# T3 sequence (looked up): T1 sequence (looked up)
# T4: mFc tagged human LAG3 ECD recombinant protein (human, UniProt P18627 23-450)
# T4 construct: extracellular domain; purchased from Biointron; not shown: mouse IgG Fc (mFc) tag
# T4 sequence (looked up): T1 sequence (looked up)
# T5: mouse LAG3, full length, stably expressed on CHOK1 cells (mouse, UniProt Q61790 24-521)
# T5 construct: whole, on cells
# T5 sequence (looked up): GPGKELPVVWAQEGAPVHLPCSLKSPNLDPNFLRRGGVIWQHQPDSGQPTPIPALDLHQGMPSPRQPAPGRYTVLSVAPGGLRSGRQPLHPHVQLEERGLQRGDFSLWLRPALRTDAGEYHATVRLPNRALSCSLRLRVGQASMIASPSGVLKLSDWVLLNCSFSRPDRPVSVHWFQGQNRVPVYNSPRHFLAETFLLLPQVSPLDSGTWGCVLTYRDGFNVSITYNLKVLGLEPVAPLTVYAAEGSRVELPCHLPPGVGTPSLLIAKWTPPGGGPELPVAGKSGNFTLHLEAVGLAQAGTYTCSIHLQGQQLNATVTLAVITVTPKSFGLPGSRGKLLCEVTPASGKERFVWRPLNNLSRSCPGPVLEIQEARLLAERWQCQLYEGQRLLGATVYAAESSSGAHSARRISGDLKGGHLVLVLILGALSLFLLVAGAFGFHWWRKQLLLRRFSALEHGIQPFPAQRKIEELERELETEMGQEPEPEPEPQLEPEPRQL
# T6: hFc tagged human LAG3 D1-D2 recombinant protein (human, UniProt P18627 23-261)
# T6 construct: range 23-261; generated by Chempartner; also called hLAG3 D1-D2; not shown: human IgG Fc tag
# T6 sequence (looked up): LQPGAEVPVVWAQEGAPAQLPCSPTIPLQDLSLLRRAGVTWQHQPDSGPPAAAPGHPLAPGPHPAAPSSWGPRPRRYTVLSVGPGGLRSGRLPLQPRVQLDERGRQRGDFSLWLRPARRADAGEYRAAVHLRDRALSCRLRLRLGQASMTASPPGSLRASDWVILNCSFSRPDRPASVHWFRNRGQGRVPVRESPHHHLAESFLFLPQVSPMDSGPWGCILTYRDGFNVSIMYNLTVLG
# B1: Antibody 048 (antibody, V domains shown)
# VH: EFQVQQSGPELVKPGASVKISCKASGYSFSDYNMNWLKQSTGKSLEWIGLVDPIYGTIRYNQKFKGKATLTVDQSSSTAYMQLNSLTSEDSAVYYCALITTSVRYFDYWGQGTTLTVSS
# VL: DVLMTQTPLSLPVSLGDQASISCRSSQNIVHTDGNTYLEWYLQKPGQSPKLLIYKVSNRFSGVPDRFSGSGSGTDFTLKISRVEAEDLGVYYCFQGSHVPPTFGGGTKLEIK
# notes: mouse hybridoma antibody
# B2: 035c (antibody, human IgG4, V domains shown)
# VH: QVQLQQSGAELARPGASVKLSCKASGYSFTSYGINWVKQRTGQGLEWIGEIYPRSGNTYYNEKFKDKATLTADKSSSTAYMELRSLTSEDSAVYFCARGGTYDGYYYAMDFWGQGTSVTVSS
# VL: DIVLTQSPASLAVSLGQRATISCRASESVDNFGSSFLHWYQQKPGQAPKLLIYRASNLESGIPARFSGSGSRTDFTLTINPVETDDVATYYCQQVNKDPRTFGGGTKLEIK
# notes: human IgG4 S228P / kappa chimeric antibody; also called chimeric antibody 035; not shown: human kappa light chain constant region (pcDNA3.4-hIgGk vector)
# B3: 057c (antibody, human IgG4, V domains shown)
# VH: B2 VH with Y27F, F64L, D66G, K67E, K74R, F111Y
# VL: B2 VL with D1N, L37M, S67G, R72G, N80D
# notes: human IgG4 S228P / kappa chimeric antibody; also called chimeric antibody 057; not shown: human kappa light chain constant region (pcDNA3.4-hIgGk vector)
# B4: 015c (antibody, human IgG4, V domains shown)
# VH: EVQLQQSGPVLVKPGASVKLSCKASGFTFTDYYMNWVKLSHGKSLEWIGVINPFNGDTAYKQKFKGKATLTVDKSSSTAYMELNSLTSEDSAVYYCARDDGYYLYYFDSWGQGTTLTVSS
# VL: DIQMTQSPSSLSASLGERVSLTCRASQDIGSRLNWLQQEPDGTIKRLIYATSSLDSGVPKRFSGSRSGSDYSLTISSLDSEDFVVYYCLQYASSPPTFGAGTKLELK
# notes: human IgG4 S228P / kappa chimeric antibody; also called chimeric antibody 015; not shown: human kappa light chain constant region (pcDNA3.4-hIgGk vector)
# B5: 033c (antibody, human IgG4, V domains shown)
# VH: EVQLQQSGAELVRPGASVKLSCTASDFNIKDDYIHWVKQRPEQGLEWIGWIDLENGDTEYASKFQGKATITADTSSNTAYLQLSSLTSEDTAVYYCTTKGSHWGQGTLVTVSA
# VL: DVVMTQIPLSLPVSLGDQASISCRSSQSLVYSNGNTYLNWYLQKPGQSPKLLIHKVSNRFSGVPDRFSGSGSGTDFTLKISRVEAEDLGVYFCSQSTHVPYTFGGGTKLEIR
# notes: human IgG4 S228P / kappa chimeric antibody; also called chimeric antibody 033; not shown: human kappa light chain constant region (pcDNA3.4-hIgGk vector)
# B6: 048c (antibody, human IgG4, V domains shown)
# VH: B1 VH
# VL: B1 VL
# notes: human IgG4 S228P / kappa chimeric antibody; also called chimeric antibody 048; not shown: human kappa light chain constant region (pcDNA3.4-hIgGk vector)
# B7: 039c (antibody, human IgG4, V domains shown)
# VH: EFQLQQSGPELVKPGASVKISCKASGYSFTDYNLNWVRQSNGKSLEWIGLVDPIYGTIRYNQNFKDKATLTVDQSSSTAYMQLNSLTSEDSAVYYCASIMTAVRYFDHWGQGTTLTVSS
# VL: B1 VL with S10F, Q27L, T32S, R82G
# notes: human IgG4 S228P / kappa chimeric antibody; also called chimeric antibody 039; not shown: human kappa light chain constant region (pcDNA3.4-hIgGk vector)
# B8: 024c (antibody, human IgG4, V domains shown)
# VH: EVQLQQSGPELVKPGASVKISCKASGYTFTDYYMNWVKQSHGKRLEWIGDIDPNNGGTSYNQKFKGKATLTVDKSSSSAYMDLRSLTSEDSAVYYCARAGSYYYGSSYVEYFDVWGTGTTVTVSS
# VL: DIQMTQSPASLSASVGETVTITCRASGNIHNYLAWYQQKQGASPQLLVYNAKTLADGVPSRFSGSGSGTEFSLKINSLQPEDFGNYYCQHFWNTPYTFGGGTKLEIK
# notes: human IgG4 S228P / kappa chimeric antibody; also called chimeric antibody 024; not shown: human kappa light chain constant region (pcDNA3.4-hIgGk vector)
# Biological target: T1, hFc tagged human LAG3 ECD recombinant …
# Experiment: competitive FACS: hFc-LAG3 ECD binding to Raji cells (MHC II)
# Protocol: Competitive FACS assay was used to determine whether the purified hybridoma antibodies can block LAG3 and MHC II interaction. […] After washing, dye labeled anti-human Fc 2nd antibody (Sigma) was added and incubated at 37° C. for 1 hour. Fluorescence intensity was detected.
IC50,TOP blocking (%),Binder
7.6 nM,92.9%,B1

# Biological target: T2, human LAG3, full length, stably …
# Experiment: FACS on 293F cells stably expressing human LAG3
# Protocol: (§1) Briefly the antibodies were incubated with 2×10⁵ target cells at 4° C. for 1 hour. After washing, fluorescence labeled anti-mouse IgG 2nd antibody (Life Technologies) was added and incubated at 4° C. for 1 hour. Geometric median fluorescence intensity (MFI) was detected and EC₅₀ was calculated using GraphPad Prism9.0.
# MFI was detected and EC₅₀ was calculated using GraphPad Prism9.0.
EC50,TOP MFI,Binder
1.3 nM,333,B2
1.4 nM,337,B3
1.9 nM,296,B4
2.4 nM,394,B5
1.3 nM,289,B6
1.3 nM,302,B7
1.1 nM,346,B8

# Biological target: T2, human LAG3, full length, stably …
# Experiment: FACS on 293F-human LAG3 cells
# Protocol: as §1
row,EC50,Binder
1,1.19 nM,B1

# Biological target: T3, human LAG3 ECD recombinant protein …
# Experiment: competitive ELISA format I: His-FGL1 binding to coated LAG3 ECD
# Protocol: After washing, HRP labeled anti-His 2nd antibody (Sigma) was added and incubated at 37° C. for 1 hour. Then, 100 μl/well of TMB solution (Biotechnology) was added. After incubation for 15 minutes at room temperature, the reaction was stopped by the addition of 50 μl of 1N HCl. OD 450 nm was read. […] After washing, HRP labeled anti-SA 2nd antibody (Sigma) was added and incubated at 37° C. for 1 hour. Then, 100 μl/well of TMB solution (Biotechnology) was added. After incubation for 15 minutes at room temperature, the reaction was stopped by the addition of 50 μl of 1N HCl. OD 450 nm was read. […] The competition assay of format III is a competitive FACS assay. […] After washing, dye labeled anti-His 2nd antibody (Sigma) was added and incubated at 37° C. for 1 hour. Fluorescence intensity was detected.
row,Blocking ratio at 66.7 nM (%),Binder
1,24.3%,B2
2,33.3%,B3
3,43.6%,B4
4,67.8%,B5
5,41.2%,B6
6,40.2%,B7
7,39.4%,B8

# Biological target: T1, hFc tagged human LAG3 ECD recombinant …
# Experiment: competitive ELISA: excess competitor, biotin hFc-LAG3 ECD, coated BMS-986016
# Protocol: (§2) Competitive ELISA assay was used for epitope binning of the purified hybridoma antibodies. […] After washing, HRP labeled anti-streptavidin (SA) 2nd antibody (Sigma) was added and incubated at 37° C. for 1 hour. Then, 100 μl/well of TMB solution (Biotechnology) was added. After incubation for 15 minutes at room temperature, the reaction was stopped by the addition of 50 μl of 1N HCl. OD 450 nm was read. Competition ratio was calculated.
row,% competition,Binder
1,41.7%,B1

# Biological target: T4, mFc tagged human LAG3 ECD recombinant …
# Experiment: competitive FACS: mFc-LAG3 ECD binding to Raji cells (MHC II)
# Protocol: Activity of the purified chimeric antibodies to block LAG3 and MHC II interaction was determined by competitive FACS assay. […] After washing, dye labeled anti-mouse Fc 2nd antibody (Sigma) was added and incubated at 37° C. for 1 hour. Fluorescence intensity was detected.
IC50,TOP blocking (%),Binder
4.3 nM,95.9%,B2
2.5 nM,95.1%,B3
5.4 nM,77.1%,B4
3.9 nM,95%,B5
4 nM,64.6%,B6
4.7 nM,62%,B7
3.7 nM,96.9%,B8

# Biological target: T1, hFc tagged human LAG3 ECD recombinant …
# Experiment: competitive ELISA: excess competitor, biotin hFc-LAG3 ECD, coated BAP-050
# Protocol: as §2
row,% competition,Binder
1,10%,B1

# Biological target: T5, mouse LAG3, full length, stably …
# Experiment: FACS on CHOK1 cells expressing mouse LAG3
# Protocol: as §1
row,binding result,Binder
1,no binding,B1

# Biological target: T6, hFc tagged human LAG3 D1-D2 recombinant …
# Experiment: ELISA, coated hFc-hLAG3 D1-D2
# Protocol: Binding activity of the purified hybridoma antibodies against human LAG3 was detected by ELISA assay using hFc tagged human LAG3 D1-D2 recombinant protein. Briefly the antibodies were incubated with ELISA microplate coated antigens at 37° C. for 1 hour. After washing, horseradish peroxidase (HRP) labeled anti-human IgG 2nd Ab (Sigma) was added and incubated at 37° C. for 1 hour. Then, 100 μl/well of TMB solution (Biotechnology) was added. After incubation for 15 minutes at room temperature, the reaction was stopped by the addition of 50 μl of 1N HCl. OD 450 nm was read and EC₅₀ was calculated using GraphPad Prism9.0.
row,EC50,Binder
1,0.05 nM,B1

# Source: patent US20250313625A1 (ELPISCIENCE SUZHOU BIOPHARMA, published 2025)
